{
  "source": "ChEMBL document CHEMBL1212772",
  "proteins": {"B1": {"name": "Beta-lactamase OXA-10 (Pseudomonas aeruginosa), P14489 (protein)", "chain": "MKTFAAYVIIACLSSTALAGSITENTSWNKEFSAEAVNGVFVLCKSSSKSCATNDLARASKEYLPASTFKIPNAIIGLETGVIKNEHQVFKWDGKPRAMKQWERDLTLRGAIQVSAVPVFQQIAREVGEVRMQKYLKKFSYGNQNISGGIDKFWLEGQLRISAVNQVEFLESLYLNKLSASKENQLIVKEALVTEAAPEYLVHSKTGFSGVGTESNPGVAWWVGWVEKETEVYFFAFNMDIDNESKLPLRKSIPTKIMESEGIIGG"}, "B2": {"name": "Beta-lactamase TEM (Escherichia coli), P62593 (protein)", "chain": "MSIQHFRVALIPFFAAFCLPVFAHPETLVKVKDAEDQLGARVGYIELDLNSGKILESFRPEERFPMMSTFKVLLCGAVLSRVDAGQEQLGRRIHYSQNDLVEYSPVTEKHLTDGMTVRELCSAAITMSDNTAANLLLTTIGGPKELTAFLHNMGDHVTRLDRWEPELNEAIPNDERDTTMPAAMATTLRKLLTGELLTLASRQQLIDWMEADKVAGPLLRSALPAGWFIADKSGAGERGSRGIIAALGPDGKPSRIVVIYTTGSQATMDERNRQIAEIGASLIKHW"}, "B3": {"name": "Carbapenem-hydrolyzing beta-lactamase SME-3 (Serratia marcescens), Q6PRG8 (protein)", "chain": "MSNKVNFKTASFLFSVCLALSAFNAHANKSDAAAKQIKKLEEDFDGRIGVFAIDTGSGNTFGYRSDERFPLCSSFKGFLAAAVLERVQQKKLDINQKVKYESRDLEYYSPITTKYKGSGMTLGDMASAALQYSDNGATNIIMERFLGGPEGMTKFMRSIGDNEFRLDRWELELNTAIPGDKRDTSTPKAVANSLNKLALGNVLNAKVKAIYQNWLKGNTTGDARIRASVPADWVVGDKTGSCGAYGTANDYAVIWPKNRAPLIVSIYTTRKSKDDKHSDKTIAEASRIAIQAID"}, "B4": {"name": "Beta-lactamase CTX-M (Escherichia coli), Q9EXV5 (protein)", "chain": "MVKKSLRQFTLMATATVTLLLGSVPLYAQTADVQQKLAELERQSGGRLGVALINTADNSQILYRADERFAMCSTSKVMAAAAVLKKSESEPNLLNQRVEIKKSDLVNYNPIAEKHVNGTMSLAELSAAALQYSDNVAMNKLIAHVGGPASVTAFARQLGDETFRLDRTEPTLNTAIPGDPRDTTSPRAMAQTLRNLTLGKALGDSQRAQLVTWMKGNTTGAASIQAGLPASWVVGDKTGSGGYGTTNDIAVIWPKDRAPLILVTYFTQPQPKAESRRDVLASAAKIVTDGL"}},
  "key": {"[1]": {"substrate": "CC(C)(O/N=C(\\C(=O)N[C@@H]1C(=O)N2C(C(=O)[O-])=C(C[n+]3ccccc3)CS[C@H]12)c1csc(N)n1)C(=O)O", "test": "(§1) Activity of Pseudomonas aeruginosa OXA-10"}, "[2]": {"substrate": "CC1(C)S[C@@H]2[C@H](NC(=O)Cc3ccccc3)C(=O)N2[C@H]1C(=O)O", "test": "as §1"}, "[3]": {"substrate": "C[C@@H](O)[C@H]1C(=O)N2C(C(=O)O)=C(SCCNC=N)C[C@H]12", "test": "as §1"}, "[4]": {"substrate": "C[C@@H](O)[C@H]1C(=O)N2C(C(=O)O)=C(S[C@@H]3CN[C@H](C(=O)N(C)C)C3)[C@H](C)[C@H]12", "test": "as §1"}, "[5]": {"substrate": "C[C@@H](O)[C@H]1C(=O)N2C(C(=O)O)=C(S[C@@H]3CN[C@H](CNS(N)(=O)=O)C3)[C@H](C)[C@H]12", "test": "as §1"}, "[6]": {"substrate": "O=C(Cc1cccs1)N[C@@H]1C(=O)N2C(C(=O)[O-])=C(C[n+]3ccccc3)CS[C@H]12", "test": "as §1"}, "[7]": {"substrate": "CC1(C)S[C@@H]2[C@H](NC(=O)Cc3ccccc3)C(=O)N2[C@H]1C(=O)O", "test": "(§2) Kcat/Km ratio of Pseudomonas aeruginosa OXA-10"}, "[8]": {"substrate": "O=C(Cc1cccs1)N[C@@H]1C(=O)N2C(C(=O)[O-])=C(C[n+]3ccccc3)CS[C@H]12", "test": "as §2"}, "[9]": {"substrate": "C[C@@H](O)[C@H]1C(=O)N2C(C(=O)O)=C(S[C@@H]3CN[C@H](C(=O)N(C)C)C3)[C@H](C)[C@H]12", "test": "(§3) Activity of Escherichia coli TEM-1"}, "[10]": {"substrate": "C[C@@H](O)[C@H]1C(=O)N2C(C(=O)O)=C(S[C@@H]3CN[C@H](CNS(N)(=O)=O)C3)[C@H](C)[C@H]12", "test": "as §3"}, "[11]": {"substrate": "C[C@@H](O)[C@H]1C(=O)N2C(C(=O)O)=C(S[C@@H]3CN[C@H](C(=O)N(C)C)C3)[C@H](C)[C@H]12", "test": "(§4) Kcat/Km ratio of Escherichia coli TEM-1"}, "[12]": {"substrate": "C[C@@H](O)[C@H]1C(=O)N2C(C(=O)O)=C(S[C@@H]3CN[C@H](CNS(N)(=O)=O)C3)[C@H](C)[C@H]12", "test": "as §4"}, "[13]": {"substrate": "C[C@@H](O)[C@H]1C(=O)N2C(C(=O)O)=C(SCCNC=N)C[C@H]12", "test": "(§5) Activity of Serratia marcescens SME-3"}, "[14]": {"substrate": "C[C@@H](O)[C@H]1C(=O)N2C(C(=O)O)=C(S[C@@H]3CN[C@H](C(=O)N(C)C)C3)[C@H](C)[C@H]12", "test": "as §5"}, "[15]": {"substrate": "C[C@@H](O)[C@H]1C(=O)N2C(C(=O)O)=C(S[C@@H]3CN[C@H](CNS(N)(=O)=O)C3)[C@H](C)[C@H]12", "test": "as §5"}, "[16]": {"substrate": "C[C@@H](O)[C@H]1C(=O)N2C(C(=O)O)=C(SCCNC=N)C[C@H]12", "test": "(§6) Kcat/Km ratio of Serratia marcescens SME-3"}, "[17]": {"substrate": "C[C@@H](O)[C@H]1C(=O)N2C(C(=O)O)=C(S[C@@H]3CN[C@H](C(=O)N(C)C)C3)[C@H](C)[C@H]12", "test": "as §6"}, "[18]": {"substrate": "C[C@@H](O)[C@H]1C(=O)N2C(C(=O)O)=C(S[C@@H]3CN[C@H](CNS(N)(=O)=O)C3)[C@H](C)[C@H]12", "test": "as §6"}, "[19]": {"substrate": "C[C@@H](O)[C@H]1C(=O)N2C(C(=O)O)=C(SCCNC=N)C[C@H]12", "test": "(§7) Activity of Escherichia coli CTX-M-15"}, "[20]": {"substrate": "C[C@@H](O)[C@H]1C(=O)N2C(C(=O)O)=C(S[C@@H]3CN[C@H](C(=O)N(C)C)C3)[C@H](C)[C@H]12", "test": "as §7"}, "[21]": {"substrate": "C[C@@H](O)[C@H]1C(=O)N2C(C(=O)O)=C(S[C@@H]3CN[C@H](CNS(N)(=O)=O)C3)[C@H](C)[C@H]12", "test": "as §7"}, "[22]": {"substrate": "C[C@@H](O)[C@H]1C(=O)N2C(C(=O)O)=C(SCCNC=N)C[C@H]12", "conditions": "Escherichia coli"}, "[23]": {"substrate": "C[C@@H](O)[C@H]1C(=O)N2C(C(=O)O)=C(S[C@@H]3CN[C@H](C(=O)N(C)C)C3)[C@H](C)[C@H]12", "conditions": "Escherichia coli"}, "[24]": {"substrate": "C[C@@H](O)[C@H]1C(=O)N2C(C(=O)O)=C(S[C@@H]3CN[C@H](CNS(N)(=O)=O)C3)[C@H](C)[C@H]12", "conditions": "Escherichia coli"}},
  "data": [
    {"protein": "B1", "values": [
      {"measurement": "kcat", "setting": "[1]", "result": "< 0.0095", "unit": "s⁻¹"},
      {"measurement": "Km", "setting": "[2]", "result": 7.9, "unit": "µM"},
      {"measurement": "kcat", "setting": "[2]", "result": 86, "unit": "s⁻¹"},
      {"measurement": "kcat", "setting": "[3]", "result": "< 0.014", "unit": "s⁻¹"},
      {"measurement": "kcat", "setting": "[4]", "result": "< 0.005", "unit": "s⁻¹"},
      {"measurement": "kcat", "setting": "[5]", "result": "< 0.0073", "unit": "s⁻¹"},
      {"measurement": "Km", "setting": "[6]", "result": 200, "unit": "µM"},
      {"measurement": "kcat", "setting": "[6]", "result": 16, "unit": "s⁻¹"},
      {"measurement": "kcat/Km", "setting": "[7]", "result": "1.1e+07", "unit": "M⁻¹ s⁻¹"},
      {"measurement": "kcat/Km", "setting": "[8]", "result": 80000, "unit": "M⁻¹ s⁻¹"}
    ]},
    {"protein": "B2", "values": [
      {"measurement": "Km", "setting": "[9]", "result": 15, "unit": "µM"},
      {"measurement": "kcat", "setting": "[9]", "result": 0.00023, "unit": "s⁻¹"},
      {"measurement": "Km", "setting": "[10]", "result": 5.4, "unit": "µM"},
      {"measurement": "kcat", "setting": "[10]", "result": 0.00021, "unit": "s⁻¹"},
      {"measurement": "kcat/Km", "setting": "[11]", "result": 15, "unit": "M⁻¹ s⁻¹"},
      {"measurement": "kcat/Km", "setting": "[12]", "result": 39, "unit": "M⁻¹ s⁻¹"}
    ]},
    {"protein": "B3", "values": [
      {"measurement": "Km", "setting": "[13]", "result": 150, "unit": "µM"},
      {"measurement": "kcat", "setting": "[13]", "result": 370, "unit": "s⁻¹"},
      {"measurement": "Km", "setting": "[14]", "result": 5.8, "unit": "µM"},
      {"measurement": "kcat", "setting": "[14]", "result": 3.2, "unit": "s⁻¹"},
      {"measurement": "Km", "setting": "[15]", "result": 8.2, "unit": "µM"},
      {"measurement": "kcat", "setting": "[15]", "result": 2.5, "unit": "s⁻¹"},
      {"measurement": "kcat/Km", "setting": "[16]", "result": "2.5e+06", "unit": "M⁻¹ s⁻¹"},
      {"measurement": "kcat/Km", "setting": "[17]", "result": 550000, "unit": "M⁻¹ s⁻¹"},
      {"measurement": "kcat/Km", "setting": "[18]", "result": 300000, "unit": "M⁻¹ s⁻¹"}
    ]},
    {"protein": "B4", "values": [
      {"measurement": "Km", "setting": "[19]", "result": 120, "unit": "µM"},
      {"measurement": "kcat", "setting": "[19]", "result": 0.17, "unit": "s⁻¹"},
      {"measurement": "Km", "setting": "[20]", "result": 11, "unit": "µM"},
      {"measurement": "kcat", "setting": "[20]", "result": 0.0042, "unit": "s⁻¹"},
      {"measurement": "Km", "setting": "[21]", "result": 7.1, "unit": "µM"},
      {"measurement": "kcat", "setting": "[21]", "result": 0.0018, "unit": "s⁻¹"},
      {"measurement": "kcat/Km", "setting": "[22]", "result": 1400, "unit": "M⁻¹ s⁻¹"},
      {"measurement": "kcat/Km", "setting": "[23]", "result": 380, "unit": "M⁻¹ s⁻¹"},
      {"measurement": "kcat/Km", "setting": "[24]", "result": 250, "unit": "M⁻¹ s⁻¹"}
    ]}
  ]
}
